The target of this series is IMP3 KH1-2 WT (human, UniProt O00425 192-355). The experiment in a line: ITC. Background: ITC needs no label: the signal is the heat of the interaction.
Chain of IMP3 KH1-2 WT (O00425 192-355): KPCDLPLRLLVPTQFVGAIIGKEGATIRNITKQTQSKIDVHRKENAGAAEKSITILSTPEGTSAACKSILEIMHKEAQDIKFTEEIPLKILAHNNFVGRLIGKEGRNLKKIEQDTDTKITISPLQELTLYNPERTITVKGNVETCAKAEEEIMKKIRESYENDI

Take AACACAAUUUUGGAGGAACUACAGAAUGCGGCUA (ssRNA) [34-mer]: the binding signal was ~10 fold higher affinity than 7-mer RNAs.

These data come from publication doi:10.1101/398008.
